From patent publication US20230279151A1 (Sanofi, published 2023) come the findings set out here.

Usually Kd stands for the constant that tells how readily two partners part at equilibrium. Lower therefore signals tighter binding. A word on the koff: it is a measure of how fast the partners let go of each other. Lower therefore signals slow dissociation. Usually kon stands for a measure of how fast the partners come together. Read a low kon as slower complex formation.

For experiment [1], the target named is T1, human IL4 (IL004, Millipore) (human, UniProt P05112 25-153).
T1 construct: Commercial recombinant antigen; also called Antigen IL4
T1 sequence (looked up): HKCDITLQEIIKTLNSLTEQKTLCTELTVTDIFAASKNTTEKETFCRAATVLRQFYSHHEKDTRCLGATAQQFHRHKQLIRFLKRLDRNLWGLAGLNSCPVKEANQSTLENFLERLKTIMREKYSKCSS
Kind of experiment: SPR, Biacore 3000, antibody captured by anti-human Fc, IL4 as analyte; HEK293-FS expression, processed in vivo. On the procedure: (§1) Binding of antigens to the antibody constructs was measured using surface plasmon resonance (SPR) with a BlAcore 3000 instrument (GE Healthcare) with HBS-EP buffer (GE Healthcare). As antigens, human IL4 (IL004, Millipore) and human IL13 (IL012, Millipore) were used. The antihuman Fc capture antibody (human antibody capture kit, GE Life Sciences) was immobilized via primary amine groups (11000 RU) on a research grade CM5 chip (GE Life Sciences) using standard procedures. […] The tested antibody constructs were […] and injected at 100 nM concentration for 240 sec with a dissociation time of 300 sec at a flow rate of 30 µL/min. For human IL4 and IL13, a dilution series of 0.1 nM to 3 nM and 0.8 nM to 25 nM, respectively were used. Chip surfaces were regenerated with 2 min injects of the regeneration buffer provided with the capture kit. Sensorgrams were double-referenced with a blank chip surface and HBS-EP buffer blanks. Data analysis was performed using the BIAevaluation software v4.1.
(§2) The binding of the different bispecific Tandem-IgG constructs expressed in HEK293-FS or ExpiCHO cells as well as in vivo processed Tandem-IgG from the co-transfection with Furin variants was measured via surface plasmon resonance (SPR). The binding to the two human antigens IL4 and IL13 were compared to the binding characteristics of the individual monoclonal antibodies. […] In contrast, specific binding to IL13 was only detectable for in vivo processed Tandem-IgGs as well as the Tandem-lgG control comprising two LCs. […] Thus, processing of the linker sequence connecting the VLb (VL against IL13) at the inner position of the Tandem-lgG with the CK domain of the IL4 binding Fab at the outer position is required for a functional IL13 binding site. In vivo processing can thereby be mediated via endogenously expressed proteases or via co-transfected Furin variants.
A general note: SPR reads the build-up and loss of mass on a sensor chip optically.

For experiment [2], the target named is T1, human IL4 (IL004, Millipore). Kind of experiment: SPR, Biacore 3000, antibody captured by anti-human Fc, IL4 as analyte; second block of the table (presumably ExpiCHO expression), processed in vivo. As to the method: as §1, §2
The target is the same in experiment [3]. The experiment can be described thus: SPR, Biacore 3000, antibody captured by anti-human Fc, IL4 as analyte; HEK293-FS, co-expressed with hFurin (SEQ ID NO 37). As to the method: as §1, §2
Experiment [4] has the same target. The experiment can be described thus: SPR, Biacore 3000, antibody captured by anti-human Fc, IL4 as analyte; HEK293-FS, co-expressed with hFurin-KDEL (SEQ ID NO 38). On the procedure:
as §1, §2

Experiment [5] shares this target. The experiment can be described thus: SPR, Biacore 3000, antibody captured by anti-human Fc, IL4 as analyte; HEK293-FS expression. On the procedure:
as §1, §2

B1: sLC-Tandem-(anti-IL4xanti-IL13)-PCL2-huIgG1 (bispecific antibody)
light: DIQMTQSPASLSVSVGDTITLTCHASQNIDVWLSWFQQKPGNIPKLLIYKASNLHTGVPSRFSGSGSGTGFTLTISSLQPEDIATYYCQQAHSYPFTFGGGTKLEIKRTVAAPSVFIFPPSDEQLKSGTASVVCLLNNFYPREAKVQWKVDNALQSGNSQESVTEQDSKDSTYSLSSTLTLSKADYEKHKVYACEVTHQGLSSPVTKSFNRGECHRRRKR
chain: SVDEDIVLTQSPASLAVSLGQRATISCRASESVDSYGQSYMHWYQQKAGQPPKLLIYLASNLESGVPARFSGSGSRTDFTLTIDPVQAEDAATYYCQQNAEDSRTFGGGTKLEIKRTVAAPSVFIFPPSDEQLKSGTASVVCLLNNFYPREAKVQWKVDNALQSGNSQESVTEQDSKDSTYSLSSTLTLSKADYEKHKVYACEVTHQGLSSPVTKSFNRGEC
heavy: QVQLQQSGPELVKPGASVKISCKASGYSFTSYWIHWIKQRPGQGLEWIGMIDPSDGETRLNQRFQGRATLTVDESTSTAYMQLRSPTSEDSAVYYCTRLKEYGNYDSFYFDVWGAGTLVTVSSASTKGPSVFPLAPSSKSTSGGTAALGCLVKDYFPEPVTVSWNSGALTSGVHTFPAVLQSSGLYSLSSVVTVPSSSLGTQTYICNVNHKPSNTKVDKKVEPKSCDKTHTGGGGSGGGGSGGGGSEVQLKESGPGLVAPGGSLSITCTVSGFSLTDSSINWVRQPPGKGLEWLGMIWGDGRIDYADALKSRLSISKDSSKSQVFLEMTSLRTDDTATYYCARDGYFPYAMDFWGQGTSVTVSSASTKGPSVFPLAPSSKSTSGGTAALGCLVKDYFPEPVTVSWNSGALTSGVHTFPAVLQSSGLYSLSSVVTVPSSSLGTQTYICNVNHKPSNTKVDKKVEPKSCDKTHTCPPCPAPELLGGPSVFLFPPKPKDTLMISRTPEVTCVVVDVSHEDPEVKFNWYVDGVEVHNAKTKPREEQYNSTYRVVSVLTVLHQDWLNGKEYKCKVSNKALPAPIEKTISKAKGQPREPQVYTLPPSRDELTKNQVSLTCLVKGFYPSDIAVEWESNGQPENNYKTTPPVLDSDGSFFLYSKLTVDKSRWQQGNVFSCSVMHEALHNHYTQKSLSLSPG
notes: also called sLC-PCL2-Tandem-IgG; sLC Tandem-IgG-PCL2
For the molecule B1, in experiment [1], the affinity, expressed as Kd, was 1.05 pM; the dissociation rate constant (koff) is 0.000189 s⁻¹; the kon is 1.79e+08 M⁻¹ s⁻¹. In experiment [2], this molecule yielded a Kd of 1.33 pM, a koff of 0.000249 s⁻¹ and a kon of 1.87e+08 M⁻¹ s⁻¹.

B2: sLC-Tandem-(anti-IL4xanti-IL13)-His8-PCL1-huIgG1 (bispecific antibody)
light: DIQMTQSPASLSVSVGDTITLTCHASQNIDVWLSWFQQKPGNIPKLLIYKASNLHTGVPSRFSGSGSGTGFTLTISSLQPEDIATYYCQQAHSYPFTFGGGTKLEIKRTVAAPSVFIFPPSDEQLKSGTASVVCLLNNFYPREAKVQWKVDNALQSGNSQESVTEQDSKDSTYSLSSTLTLSKADYEKHKVYACEVTHQGLSSPVTKSFNRGECRRKR
chain: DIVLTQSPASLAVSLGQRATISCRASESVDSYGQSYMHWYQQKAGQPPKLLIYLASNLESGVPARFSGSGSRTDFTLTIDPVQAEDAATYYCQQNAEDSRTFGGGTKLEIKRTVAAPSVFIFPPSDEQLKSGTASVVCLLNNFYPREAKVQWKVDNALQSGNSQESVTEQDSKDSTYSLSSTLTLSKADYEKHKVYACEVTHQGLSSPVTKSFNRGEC
heavy: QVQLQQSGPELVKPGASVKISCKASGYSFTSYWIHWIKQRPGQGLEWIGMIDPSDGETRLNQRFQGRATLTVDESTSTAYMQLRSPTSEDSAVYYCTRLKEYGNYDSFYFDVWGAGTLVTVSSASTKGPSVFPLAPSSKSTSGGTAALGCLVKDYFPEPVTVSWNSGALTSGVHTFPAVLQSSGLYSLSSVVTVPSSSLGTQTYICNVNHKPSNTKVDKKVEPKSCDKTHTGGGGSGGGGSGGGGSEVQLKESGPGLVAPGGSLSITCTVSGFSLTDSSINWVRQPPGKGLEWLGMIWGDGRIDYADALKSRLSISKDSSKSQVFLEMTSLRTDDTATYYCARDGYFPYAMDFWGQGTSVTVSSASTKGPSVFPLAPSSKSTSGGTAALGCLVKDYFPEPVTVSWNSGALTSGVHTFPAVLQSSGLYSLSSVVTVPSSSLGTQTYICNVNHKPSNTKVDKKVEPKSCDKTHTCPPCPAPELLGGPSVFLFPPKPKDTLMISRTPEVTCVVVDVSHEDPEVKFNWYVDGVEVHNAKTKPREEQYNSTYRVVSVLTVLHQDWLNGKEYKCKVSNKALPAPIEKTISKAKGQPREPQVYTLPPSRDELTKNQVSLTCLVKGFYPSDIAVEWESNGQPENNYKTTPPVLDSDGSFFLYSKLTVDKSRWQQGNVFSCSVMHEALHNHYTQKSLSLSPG
notes: In both the single light chain was processed in vivo; also called 17, 13 with 37; 17, 13 with 38
In experiment [3], B2 showed a Kd of 1.53 pM, a koff of 0.000211 s⁻¹ and a kon of 1.38e+08 M⁻¹ s⁻¹. In experiment [4], this molecule registered a Kd of 1.86 pM, a koff of 0.000299 s⁻¹ and a kon of 1.61e+08 M⁻¹ s⁻¹.

B3: Tandem-(anti-IL4xanti-IL13)-huIgG1 (bispecific antibody)
light 1: DIQMTQSPASLSVSVGDTITLTCHASQNIDVWLSWFQQKPGNIPKLLIYKASNLHTGVPSRFSGSGSGTGFTLTISSLQPEDIATYYCQQAHSYPFTFGGGTKLEIKRTVAAPSVFIFPPSDEQLKSGTASVVCLLNNFYPREAKVQWKVDNALQSGNSQESVTEQDSKDSTYSLSSTLTLSKADYEKHKVYACEVTHQGLSSPVTKSFNRGEC
light 2: not shown
heavy: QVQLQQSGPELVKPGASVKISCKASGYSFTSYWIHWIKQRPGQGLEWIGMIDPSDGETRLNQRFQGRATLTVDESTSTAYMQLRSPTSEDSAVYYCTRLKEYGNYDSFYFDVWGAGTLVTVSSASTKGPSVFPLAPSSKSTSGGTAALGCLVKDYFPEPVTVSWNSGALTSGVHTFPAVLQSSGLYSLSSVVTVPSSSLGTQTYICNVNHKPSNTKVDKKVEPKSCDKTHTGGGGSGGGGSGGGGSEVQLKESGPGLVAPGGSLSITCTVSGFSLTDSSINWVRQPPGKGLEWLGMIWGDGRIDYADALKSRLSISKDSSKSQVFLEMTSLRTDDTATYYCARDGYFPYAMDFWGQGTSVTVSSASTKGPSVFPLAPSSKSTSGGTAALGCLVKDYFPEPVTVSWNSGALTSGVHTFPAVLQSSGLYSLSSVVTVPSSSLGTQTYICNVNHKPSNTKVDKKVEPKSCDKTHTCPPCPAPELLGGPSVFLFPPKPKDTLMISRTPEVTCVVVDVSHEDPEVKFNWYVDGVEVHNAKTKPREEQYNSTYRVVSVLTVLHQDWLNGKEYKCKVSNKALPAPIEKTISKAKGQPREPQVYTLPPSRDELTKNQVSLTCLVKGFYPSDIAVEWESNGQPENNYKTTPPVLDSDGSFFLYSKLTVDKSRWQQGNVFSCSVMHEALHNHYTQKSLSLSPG
notes: Control with the two light chains expressed as separate chains; also called Tandem-IgG control; control Tandem-IgG
In experiment [5], B3 displayed a Kd of 2.32 pM, a koff of 0.000149 s⁻¹ and a kon of 6.39e+07 M⁻¹ s⁻¹.
